Patent publication US6635421 (CHILDREN S MEDICAL CENTER, dated 2003)

T1: Human NP-2 (neuropilin-2) (human, UniProt O60462 21-931)
T1 sequence: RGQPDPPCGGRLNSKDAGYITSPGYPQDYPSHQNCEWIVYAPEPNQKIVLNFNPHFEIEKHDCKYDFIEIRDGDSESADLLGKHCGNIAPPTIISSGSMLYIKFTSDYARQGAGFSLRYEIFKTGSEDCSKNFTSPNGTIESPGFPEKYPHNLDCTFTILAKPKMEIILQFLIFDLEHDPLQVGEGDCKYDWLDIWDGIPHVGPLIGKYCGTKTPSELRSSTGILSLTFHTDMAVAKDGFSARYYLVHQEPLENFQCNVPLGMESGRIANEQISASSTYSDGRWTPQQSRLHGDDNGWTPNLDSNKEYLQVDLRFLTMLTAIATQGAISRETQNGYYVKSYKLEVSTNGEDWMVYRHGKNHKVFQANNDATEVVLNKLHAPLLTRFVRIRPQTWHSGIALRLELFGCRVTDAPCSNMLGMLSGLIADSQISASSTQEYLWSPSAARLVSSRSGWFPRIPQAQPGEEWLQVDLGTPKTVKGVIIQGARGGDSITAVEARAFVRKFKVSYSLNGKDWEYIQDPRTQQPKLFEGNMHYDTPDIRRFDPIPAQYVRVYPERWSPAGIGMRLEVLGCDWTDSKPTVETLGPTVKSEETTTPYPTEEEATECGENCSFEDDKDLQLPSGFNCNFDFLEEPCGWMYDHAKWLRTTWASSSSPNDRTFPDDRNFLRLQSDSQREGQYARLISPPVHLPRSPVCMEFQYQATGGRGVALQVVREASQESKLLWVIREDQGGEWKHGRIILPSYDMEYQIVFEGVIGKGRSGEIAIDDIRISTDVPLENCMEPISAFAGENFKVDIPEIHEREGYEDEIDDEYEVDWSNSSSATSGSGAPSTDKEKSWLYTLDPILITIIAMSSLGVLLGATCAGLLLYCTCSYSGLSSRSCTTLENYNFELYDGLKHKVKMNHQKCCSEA

B1: Human recombinant VEGF121 (ligand, UniProt P15692-9 27-147, looked up)
chain: APMAEGGGQNHHEVVKFMDVYQRSYCHPIETLVDIFQEYPDEIEYIFKPSCVPLMRCGGCCNDEGLECVPTEESNITMQIMRIKPHQGQHIGEMSFLQHNKCECRPKKDRARQEKCDKPRR
modifications: radio-iodinated (125I, IODO-BEADS)
notes: mature
B2: Human recombinant VEGF165 (ligand, UniProt P15692-4 27-191, looked up)
chain: APMAEGGGQNHHEVVKFMDVYQRSYCHPIETLVDIFQEYPDEIEYIFKPSCVPLMRCGGCCNDEGLECVPTEESNITMQIMRIKPHQGQHIGEMSFLQHNKCECRPKKDRARQENPCGPCSERRKHLFVQDPQTCKCSCKNTDSRCKARQLELNERTCRCDKPRR
modifications: radio-iodinated (125I, IODO-BEADS) in the binding and cross-linking experiments; unlabelled when coupled to Sepharose or used as competitor
notes: mature

Legend:
[1] = target: T2, Human VEGF165R/NP-1 (VEGF165 receptor / neuropilin-1) (human, UniProt O14786 22-923); experiment: cross-linking of 125I-VEGF121 to PAE/NP-1 cells, SDS-PAGE, autoradiography
T2 construct: 923 amino acid open reading frame; also called clone A2
Description: The binding was carried out in the presence of 1 μg/ml heparin. […] The cells were lysed and proteins were resolved by 6% SDS-PAGE. The polyacrylamide gel was dried and exposed to X-ray film.

[2] = target: T2, Human VEGF165R/NP-1 (VEGF165 receptor / …); experiment: Scatchard analysis of 125I-VEGF165 binding to independently generated PAE/NP-1 clones
[3] = target: T1, Human NP-2 (neuropilin-2); experiment: expression cloning: COS-7 cells transfected with single clones screened for 125I-VEGF165 binding (seven positive clones, one of them NP-2)
Description: The E. coli were sub-divided into 50 separate pools and plated onto 50 LB ampicillin dishes, with each pool representing approximately 100 clones. […] The seven positive plasmid clones were amplified and their DNA was analyzed by restriction enzyme digestion. […] One clone from each group was submitted for automated DNA sequencing.

[4] = target: T2, Human VEGF165R/NP-1 (VEGF165 receptor / …); experiment: cell-based or functional assay
[5] = target: T2, Human VEGF165R/NP-1 (VEGF165 receptor / …); experiment: Scatchard analysis (LIGAND program) of 125I-VEGF165 binding to PAE/NP-1 cells

Row | Binder | binding result [1] | Kd [2] [nM] | binding result [3] | 231 breast carcinoma cell motility (Boyden chamber motility assay) [4] [fold] | Kd [5] [nM]
1 | B1 | no binding (tested: 10 ng/ml) | – | – | – | –
2 | B2 | – | 0.3 | binds | 2 | 0.32
